Consider 33 sequences from the NTF2 design screens of Basanta et al. (2020).

A short description of the series: protease stability score; higher = more stable; yeast display proteolysis, trypsin and chymotrypsin.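 Note: relative to predicted unfolded state with 0 unfolded-like and 1 meaning tenfold more protease.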
The sequence “SEDEEISERALRHVYKHLKTGDEDNFQKNFDPHVRFEAENVEFHGREASEHLSKRIDVIHRIIIRHHTIYNGVIVIHGEVDGEFNGKRDRDIVTIYYVKVNGQWQIRELKIG” gave a protease stability score of 0.891. As for “SEDQEEAEHVFEQWIRVLTTGDEETAHKMADPNTRMHFNGKDIHGMDTIAKEFHDLGITLQSIRMRHVERQGDKIHIHSRRTFEVNGVHLNTEVHHSLVKIDGRWTFQHTYVH”, the protease stability score was found to be 0.086. The figure for “SDDERLAHHLVELLLHNIETGDFRMLMHLIDPNVRIDINGVEIHGREEWHKHLRTLGFDHFELHIDSIDAFDGKVIVHTTIRIKYNGVHFEKKTHLIAEKFDGRWYMREIRER” is 1.55; for “SEDEELMKKVFEIFLNHLETGDWRELEKLLDPHAQLNIDGRDYHGWDKITEEMRKLGMTMHSELEHVRFQGDKIDLKGYVKVRIGDKEIRRSTRYVALKVDGRWEERSIILL” it is 1.41.

As to “DEEKHILDRYWEEWLHALITGDEERLMELIDPNAKHVFNGKELHGRESLTELLRRLGMEIKDIRDHDLKVIGDKLHIDTRIDGIINGRQTTIRMHIIATKIDGKWVHTKLEVR”, the protease stability score came out at 1.23.

In turn, “DEERKSTELALKHWHESMRTGDEHDTRRMMDPNVRVEIGDKTYVGREDVLEFMHRLGANHVEHFEIEDWKIVNGKVVMHGHSRVRIGDFEANTEVIIFSQKFNGRWFLESVIIV” had a protease stability score of 0.656. “DDIEHDVKFFMERWVEAINTGDWKLLKKLVDPDAKFLIGDKELHGRELYVRHVLELRYRTEMIDNKIEVYDGRVHADMQVHSTLHIDGRNVDIHTHTRVVTRKVDGQWRLKSMEIL”: the protease stability score is 0.993.

In turn, “SEEEEQVTESFEHFFRARYTGDEHTLLRMMDPNVRVIVDGKDIHGWEEVIRYLVHIRIKRSELHDREIRVVNGRAIVHLDVHTDREVDGVRIETRIILILYAEKIDGRWVFKEVKIEVR” registered a protease stability score of 1.29. The sequence “DEDKEDLDDWFKRWEEALRTGDEKTLLRLMDPDTRLIFENHERHGMEEIFDMLHKHLNRVDHIHDFILRRDDSQGDKVRYDGQEDGIVDGVRDILKVIIYMIKIDGRWLMEELEFH” returned a protease stability score of 1.26. The figure for “SEEERDIRHSIEMLFYYFETGDWREWERLADPRARLIIGEKEHHGREELSRSLKELLDRLGVDHYEIKDKRSEIIDGRVNLHVRGHLHVNGRNQHVIVIMVAIKIDGRWLLESLEIRLH” is 1.3.

“TEMEKRAEHWARLMVDRLKTGDEEVLRKMMDPNTRLEIDGREFIGREEILKSWEELGIKHIIFRHIDIEIVDGVVHVHLDLHVRIGEKDTKIELRVTNEKINGRWVIRSIHIHDI”: the protease stability score amounted to 1.69. With “DEEEHYLREYLRIVDEELHTGDEKLLAKLLDPEVRVDFNGVVNIGWETVRRHVHHIWMIFRDSKIHDVKVQGDKMIADGRVDVEIIVNGRTHRLELDTNLIFRKVNGRWVMQEIKIG” the figure was 2.25.

“DEDEKELERVMREFMRVWLTGNEKDFKELMDPHVRLEIGDKEHHGREEAVRILHEWRRKLGVDHSDYHHIHVQGEKMHVRGISEYNGRTVEVIIEVLIINGKLRSVHVEFR” had a protease stability score of 2.57.

In turn, “HEDEKVLKEMLRILAEVITTGNEEVMKRLADPHVRIDWNGRDIIGMEERYRKLREMGIEFEVRIHLRDTRSVGEKVEFITQLDVHIRVGDKTINFHQETRVDMEKVDGRWRVNEEKVV” returned a protease stability score of 0.415. The figure for “SEDDDLIREFFEDWVKSVLTGDEDTIAKLADPHTRHEYGDKEHHGRDLVVEMLTFLYKHIRFEDVRLRHFDIQGNKIILHGKVEGKIDGRHRTFDVTIEVIKVNGQWLWHTIVIR” is 1.89; for “DEDHEEFHRLVHEIFEYWRTGDEESLSELADPHVRYLYGDKIWIGREDMMTFLREIRIDRVHIEDMRVHKIGNKAEIRSDTRMDLHFNGKRLETKTEVKIVLHKVNGRWVIKSIEYRIE” it is 2.13; for “TDERDRYKHFLHLFRHLIKTGDEDVLANNADPHVKFHIHIGDKEREHHGMESMVKIFKEWRIHHLHIESFDVQGDKLIALVHVDGIINGRHHSTTVNIILTFVNGREKEVNIHLT” it is 1.74. On to “SDDHEEAKEALRLWVEDLLTGDEDRLRELVDPNARIEIIVNGRTIEYHGRDRVNKWTSFVLLRLGVKHSHVHEIRLIDGRVHNDLRIHQGDKDQILHLSFEKINGKWTLREVKISVV”, for which the protease stability score was 1.39.

“HEREEWSENAFRMILRSLMTGDERTLYELADPNVRLDVNGQDYHGREDFLHFYTHFLFRADHVELILRRERPVGDKLELDGELVSRVGDKTHHVEVRIVLWKVNGRWLIHSVYII” came in with a protease stability score of 1.81. Take “SEMEHQSRKILEDTLRQWLTGDWHSLHELMDPNTKLDVGDKHFHGREAVKVFLERADHVKDLQIDHMRIQGDKIETDVHMHVTVGDKEKDVEVELIVLKVNGKWLLRSASIK”: the protease stability score stood at 1.22. With “TEEEDRLREIAELIHKFLTTGDWEKIFRMLDPHVRVEIHVNGRDIIIHGWKNVHRLLEYELEELRFHQSDVHELRVQGDKAHSITEWDGVIDGRRQNLHVNVHFVTVDGRIRSIKFEFR” the figure was 1.57; with “DEATKSAEIAVRLLKKTQDTGNEELERKLVDPHVRVDVNGRESHGWEHLVEIIREMRVHSLTVTRSEVQGNKVFNDGILDGEINGVRVHIYIHIIIEKINGQWVIRELRFH”, 0.803; with “DEETKFLLDIFRLVLELFMTGDEDTFSRLFDPNVRNEVNGVEAIGWHQVRELIKEILKEIRIEHIHIHDVRAVGDKVHADTRTDGIINGKRQRRETHVHLETVNGRLKSIWLQIE”, 1.13. With “THLHDQVHKAVEDVERDLMTGNEERLYKLLDPNVRIEYNGQDLHGREIAIHFLIRISNHWRFEDLHIESMNVQGNKATIHSRYVRHIGDKREETHVHLYMVKINGQWFIHSMSFS” the figure was 2.25; with “DEHDEHYHRLMKVLVDMMATGDWRTIHELMDPDARSDIDGREVHGREEVIRVIKEFFDKFKGARIEIRLRRWDTINGRIDVRVQLDVNFNGRTEQYDTRIHNVVVDGVSEELTVEVK”, 1.39. The figure for “SEEDKATEKFLRELSEWHRTGDEEHFVRNLDPHVRVDIDGVELHGREEVERHLRKRWEKLGVDRFDSELRFKHIHVQGDKIEIHIRIILDINGVHRNVDVEIIALKVNGRWLIQSYHIR” is 2.24. For the sequence “KEQDHLIKNVLERLFRAFHTGNEEELEKLIDPHAMIIIGDKHFHGREEVLHTLVNLVNEIRFRDMELKDSRLFDGRVNIDLDEHIRQGDKHHLYEVHLILYKFDGRWFIRKFEIR”, the protease stability score stood at 1.46. Sequence “SDSEESSKVALELFKESVETGDERVSQELADPNYRVHYGDKTLHGREAWIRVILEMRWRTVTFKHLDFQGDKVRIEGEILGEYNGVETNFSTTLNVLKINGQWFLHSVHIQ” showed a protease stability score of 1.49. With “SEEERESEEFWKHLRDVTRTGDFDSLSKLVDPEVRLEWNGRHFIGREHLAELVIDMLNRIDHVELRLHSYRLQGNYLHLRTILIIRINGQQITHDTRITFIKVDGRWIIESKHVH” the figure was 0.869; with “DEIKKVALKMADLIFELYLTGNEELLRKLADPHMKLIIDGREFHGMHVSHEWILRELKEIRIEDWKIKDVHLQGNKVHIDLRVHGVVDGQREERDVKIHIIVINGRIHSMEMHKE”, 2. Take “DEEQELLLRIFERWLEFLLTGDEDTMHRLFDPDVKSRIGDFNHHGRELVLEAHQWFLKHARLKEFIRRDIHAINGRINMKGDVRVDVNGQEWEDHIRIHLVVVNGKMREIHIEEK”: the protease stability score was 1.38. With “HEDHERVRHIIERWWHILETGDEDEMEDMADPNVQIYIGDKRHHGREILAEHVRKFKGKKVNIKRLDIQGDKFRVDGDVHYDGRHHRVRIEIDVVDGRIKRLRIEIE” the figure was 1.38; with “DEHHEFSRTATEMWIHFMETGDEHDLRNLIDPNVKTKVGDKHHHGREFLVKWLLTFMERADHVEIRLNDIKLQGDKIHIEGRLIIIVGDKEIHIHVERDIIKVNGRWVVHSVIFR”, 1.21.
